According to patent publication US20060239998A1 (D COLLEN RESEARCH FOUNDATION VZW, published 2006):

Molecular target: human monoclonal antibody BO2C11, FVIII-specific IgG4kappa inhibitory antibody against the C2 domain
Test: cell-based or functional assay

neutralisation of BO2C11 inhibitory activity (chromogenic assay): 50 % neutralisation at 1/8 BO2C11/Fab molar ratio
B1: Fab fragments of Ab 14C12 (Fab, V domains shown)
VH: EVQLQQSGPELVKPGASVKLSCKASGYTFTSSVMHWLKQKSGQGLEWIGYINPYNDGTKYNEKFTAKATLTSDKSSSTVYMELSGLTSEDFAVYYCARSGGLLRGYWYFDVWGAGTTVTVSS
VL: DLVLTQSPATLSVTPGDSVSLSCRASQDITNTLHWYHQKSHESPRLLIKYVSQSISGIPSRFSGSGSGTVFTLSINSVETEDFGVYFCQQSTSWPYTFGGGTKLEIKR
